The source of these data is patent US20250197467A1.

This test deals with His-tagged human IL-18BP (human) (UniProt O95998). Put plainly: AlphaLISA of free IL-18BP. On the technique in general: Bead proximity is the source of the signal in Alpha formats.
His-tagged human IL-18BP (human), sequence (O95998 31-194): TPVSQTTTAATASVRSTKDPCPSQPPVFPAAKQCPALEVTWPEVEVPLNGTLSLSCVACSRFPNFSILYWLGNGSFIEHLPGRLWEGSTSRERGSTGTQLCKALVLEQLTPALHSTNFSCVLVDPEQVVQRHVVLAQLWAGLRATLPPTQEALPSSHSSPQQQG

B1: C318 + Matriptase (ligand)
chain: MAAEPVEDNSINFVAMKFIDNTLYFIAEDDENLESDSGRVANYFGKLKSKLSIIRNLNDQVLFIDQGNRPLFEDMTDSDARDNAPRTIFIISMYADSQPRGMAVAISVKCEKISTLSAENKIISFKEMNPPDNIKDTKSDIIFFQRSVPGHDNKMQFESSSYEGYFLAAEKERDLFKLILKKEDELGDRSIMFTVQNED
For B1, the Kd (usually a measure of binding affinity in units of concentration) stood at 586 nM.

B2: C316 + Matriptase (ligand)
chain: MAAEPVEDNSINFVAMKFIDNTLYFIAEDDENLESDSGRVANLVGYFGKLKSKLSIIRNLNDQVLFIDQGNRPLFEDMTDSDARDNAPRTIFIISMYADSQPRGMAVAISVKCEKISTLSAENKIISFKEMNPPDNIKDTKSDIIFFQRSVPGHDNKMQFESSSYEGYFLAAEKERDLFKLILKKEDELGDRSIMFTVQNED
Regarding B2, the dissociation constant (Kd) worked out at 723 nM.

B3: C326 (ligand)
chain: MAAEPVEDNSINFVAMKFIDNTLYFIAEDDENLESDRGRRVANPLGLAGSGYFGKLKSKLSIIRNLNDQVLFIDQGNRPLFEDMTDSDARDNAPRTIFIISMYADSQPRGMAVAISVKCEKISTLSAENKIISFKEMNPPDNIKDTKSDIIFFQRSVPGHDNKMQFESSSYEGYFLAAEKERDLFKLILKKEDELGDRSIMFTVQNED
Take B3: the Kd came out at 2100 nM.

B4: C326 + MMP9 (ligand)
chain: LAGSGYFGKLKSKLSIIRNLNDQVLFIDQGNRPLFEDMTDSDARDNAPRTIFIISMYADSQPRGMAVAISVKCEKISTLSAENKIISFKEMNPPDNIKDTKSDIIFFQRSVPGHDNKMQFESSSYEGYFLAAEKERDLFKLILKKEDELGDRSIMFTVQNED
In the case of B4, the equilibrium dissociation constant (Kd) was 139 nM.

B5: C323 (ligand)
chain: MAAEPVEDNSINFVAMKFIDNTLYFIAEDDENLESDRGRRVANLVGGSGYFGKLKSKLSIIRNLNDQVLFIDQGNRPLFEDMTDSDARDNAPRTIFIISMYADSQPRGMAVAISVKCEKISTLSAENKIISFKEMNPPDNIKDTKSDIIFFQRSVPGHDNKMQFESSSYEGYFLAAEKERDLFKLILKKEDELGDRSIMFTVQNED
In turn, B5 came in with a Kd of 8550 nM.

B6: C325 (ligand)
chain: MAAEPVEDNSINFVAMKFIDNTLYFIAEDDENLESDRGRRPLGLAGGSGYFGKLKSKLSIIRNLNDQVLFIDQGNRPLFEDMTDSDARDNAPRTIFIISMYADSQPRGMAVAISVKCEKISTLSAENKIISFKEMNPPDNIKDTKSDIIFFQRSVPGHDNKMQFESSSYEGYFLAAEKERDLFKLILKKEDELGDRSIMFTVQNED
On to B6, for which the Kd came out at 1880 nM.

B7: C325 + MMP9 (ligand)
chain: LAGGSGYFGKLKSKLSIIRNLNDQVLFIDQGNRPLFEDMTDSDARDNAPRTIFIISMYADSQPRGMAVAISVKCEKISTLSAENKIISFKEMNPPDNIKDTKSDIIFFQRSVPGHDNKMQFESSSYEGYFLAAEKERDLFKLILKKEDELGDRSIMFTVQNED
B7 yielded a Kd of 158 nM.

B8: C324 + MMP9 (ligand)
chain: YFGKLKSKLSIIRNLNDQVLFIDQGNRPLFEDMTDSDARDNAPRTIFIISMYADSQPRGMAVAISVKCEKISTLSAENKIISFKEMNPPDNIKDTKSDIIFFQRSVPGHDNKMQFESSSYEGYFLAAEKERDLFKLILKKEDELGDRSIMFTVQNED
The molecule B8 returned a Kd of 36.5 nM.
